Test results as given in patent publication US20250215092A1 (ZHEJIANG NANOMAB TECHNOLOGY CENTER, published 2025).

What was measured:
[1] = target: T1, Mouse EGFR Protein, His Tag (Acro, Cat #EGR-M5224) (mouse, UniProt Q01279 25-647); experiment: ELISA, coated antigen 1 ug/mL, antibody 50 nM
T1 construct: extracellular domain; Bought protein; not shown: His tag
Description: (§1) ELISA was used to identify the binding of VHH-IgG4 antibodies to the extracellular domains of mouse EGFR, monkey EGFR, and human EGFR proteins. The detection steps were as follows: Mouse EGFR Protein, His Tag (Acro, Cat #EGR-M5224) and Rhesus macaque EGFR Protein, His Tag (Acro, Cat #EGR-C52H1) were diluted to 1 μg/mL with phosphate buffer, and 100 μL of each dilution was added to a 96-well ELISA plate and coated overnight at 4° C. The next day, the plates were washed twice with PBST (containing 0.5% TWEEN-20) and then blocked with 3% BSA at 37° C. for 1.5 h, followed by two washes with PBST. VHH-IgG4 antibodies were diluted to 50 nM, and 100 μL of the dilution was added to each well and incubated at 37° C. for 1 h. The plates were then washed three times with PBST, and 100 μL of HRP-labeled goat anti-human IgG Fc antibody (1:10000, Bethyl) was added to each well and incubated at 37° C. for another 40 min. After washing the plates four times with PBST, 100 μL of TMB substrate was added to each well, and the reaction was allowed to proceed for 3-5 min. The reaction was stopped by adding 100 μL of 3N hydrochloric acid per well. After stopping the reaction, the optical density at 450/650 nm was measured using a Tecan microplate reader.

[2] = target: T2, Rhesus macaque EGFR Protein, His Tag (Acro, Cat #EGR-C52H1) (rhesus macaque, UniProt P55245 25-645); experiment: ELISA, coated antigen 1 ug/mL, antibody 50 nM
T2 construct: extracellular domain; Bought protein; also called Monkey EGFR; not shown: His tag
Description: as §1

[3] = target: T3, human EGFR.His antigen (Acro, Cat #EGR-H522a) (human, UniProt P00533 25-645); experiment: SPR, antibody captured on protein A, EGFR.His in flow
T3 construct: extracellular domain; Bought protein; also called EGFR his tag protein; full-length EGFR extracellular domain protein; not shown: His tag
Description: The binding kinetics and affinity of candidate antibody to human EGFR.His antigen were determined using surface plasmon resonance (SPR). The purified antibody was flowed through the sensor chips pre-immobilized with protein A, and the antibody was captured by protein A. Then five different concentrations of EGFR.His protein were used as the mobile phase, and the binding time and dissociation time were […], respectively. The binding rate (kon), dissociation rate (koff), and equilibrium constant (kD) were analyzed using Biacore Evaluation Software 2.0 (GE). EC225, an antibody that binds to region III of human EGFR, was selected as a positive control (sequence source https.//go.drugbank.com/drugs/DB00002).

[4] = target: T4, EGFR-D1D2 (L25-A310, P00533-1 (uniprot)) his tag antigen (human, UniProt P00533 25-310); experiment: ELISA: EGFR-D1D2 his tag antigen coated at 0.5 µg/mL, antibody at 2000, 200, 20, 2 nM, HRP goat anti-human IgG Fc, OD450
T4 construct: range 25-310; also called I+II domain protein; EGFR-D1D2 protein; not shown: His tag
Description: (2) Protein Binding Epitope Analysis: ELISA was used to determine the binding of VHH-IgG4 antibody to each domain of EGFR extracellular protein. Briefly, EGFR his tag protein, and EGFR-V3-his tag antigen protein were diluted to 1 μg/mL, EGFR-D1D2 (L25-A310, P00533-1 (uniprot)), and EGFR-D4 (F481-S645, P00533-1 (uniprot)) his tag antigen were diluted to 0.5 μg/mL, and each well of an ELISA plate was coated with […] antigen and incubated overnight at 4° C. The next day, the plates were washed twice with PBST (added with 0.5% TWEEN-20), then blocked with 3% BSA at 37° C. for 1.5 h, and then washed twice with PBST. Then, the antibody to be tested was diluted to 50 nM, 5 nM, 0.5 nM, 0.05 nM, and added to the wells coated with EGFR his tag protein or EGFR-V3-his tag antigen at 100 µL/well, respectively. The antibody was diluted to 2000 nM, 200 nM, 20 nM, 2 nM, and added to the wells coated with EGFR his tag protein or EGFR-V3-his tag antigen at 100 µL/well, respectively. The ELISA plates were incubated at 37° C. for 1 h. The plates were then washed three times with PBST, and then 100 μL HRP labeled Goat anti human IgG Fc antibody (1:10000, Bethyl) was added into each well, and incubated at 37° C. for another 40 min. After washing the plates four times with PBST, 100 μL of TMB substrate was added to each well, and the reaction was allowed to proceed for 3-5 min. The reaction was stopped by adding 100 μL of 3N hydrochloric acid per well. After stopping the reaction, the optical density at 450/650 nm was measured using a Tecan microplate reader.

[5] = target: T5, Region III of EGFR expressed on HEK293T cells (human, UniProt P00533); experiment: flow cytometry on HEK293T cells expressing EGFR region III, anti-human IgG PE, MFI, curve fit; unit from the concentration axis and paragraph 62 [table]
T5 construct: also called HEK293T EGFR-III cells; stably transformed cell line 293T overexpressing EGFR III region protein
Description: HEK293T cells that express Region III of EGFR (i.e., HEK293T […] cells) were plated in a 96-well plate with 3×10⁵ cells/well, and then HEK293T […] cells were incubated with gradient diluted VHH-IgG4 antibody. After incubation for half an hour, anti-human IgG PE (Jackson Immuno Research, Code: 109-117-008, Lot:145501) as the secondary antibody for detection was added for incubation, and then CytoFLEX flow cytometer was used for detection. The EC50 of the antibody was calculated by curve fitting with Graphprism8.0 software. Isotype 1 in the figure is a negative control, and its amino acid sequence is shown as SEQ ID NO: 2 in CN106046152A.

OD450 [1] [OD450]	OD450 [2] [OD450]	Kd [3] [nM]	koff [3] [s⁻¹]	kon [3] [M⁻¹ s⁻¹]	binding result [4]	EC50 [5] [nM]	Binder
2.8	3.15	4.68	0.000133	28400	no binding (tested: 2000 nM)	0.36	E003 VHH-IgG4 antibody (antibody, V domains shown, not shown: a dimerising Fc or GST) VH: QVQLVESGGGLVQPGGSLRLSCVASGGVFSSYAMGWYRQVPGKLRELVATITSGHSTTYADIVRGRFTISRDNTKNTVYLQMNRLEPDDTAVYYCNRSPYTPGNWGQGTLVTVSS
3.21	3.35	0.292	1.08e-05	37100	no binding (tested: 2000 nM)	0.47	E007 VHH-IgG4 antibody (antibody, V domains shown, not shown: a dimerising Fc or GST) VH: EVQLVESGGGLVQPGGSLRLSCEASGFSFSDHTMRWHRQAAGKNLELVAYITPAGDIIKYADSVQGRFTISRDNAKNMLYLQMDSLRPDDTAVYRCNALVSAAVRASDYWGQGTQVTVSS
3.37	3.64	5.17	0.000776	150000	no binding (tested: 2000 nM)	0.39	E004 VHH-IgG4 antibody (antibody, V domains shown, not shown: a dimerising Fc or GST) VH: EVQLVESGGGLAQSGGSLRLACEASGFPFETYAMSWARQTPGNEPEWVAGIFPDGKHTAYAHSVKGRFTISRVNANNTVYLQMDSLKPEDTAVYYCAKDLPFFATPSFYIGYWGQGTLVTVSS
0.72	3.68	9.62	0.0148	1.53e+06	no binding (tested: 2000 nM)	0.18	E008 VHH-IgG4 antibody (antibody, V domains shown, VHH fused to IgG4 (VHH-IgG4), expressed in ExpiCHO, protein A purified; not shown: human IgG4 constant part from the pCDNA3.4-IgG4 vector) VH: EVQVVESGGGLVQSGGSLTLSCTSSGLPLLDYAIGWFRQAPGKEREAVSAISISEGSTYYTDSVRGRFTISRDNNKNKVYLRMDNLKPEDTAVYYCAADKTDIGFWLLVGGAGGGEVRYEYWGQGTQVTVSS

Further lines, the binder ahead of its results:

Binder	OD450 [1] [OD450]	OD450 [2] [OD450]	Kd [3] [nM]	koff [3] [s⁻¹]	kon [3] [M⁻¹ s⁻¹]	binding result [4]	EC50 [5] [nM]
E005 VHH-IgG4 antibody (antibody, V domains shown, VHH fused to IgG4 (VHH-IgG4), expressed in ExpiCHO, protein A purified; not shown: human IgG4 constant part from the pCDNA3.4-IgG4 vector) VH: QVQLVESGGGLVQPGGSLRLSCEASGFAFSDYTMRWHRQAAGKELELVAYITSAGDIIKYANSVRGRFTISRDNAKNTLYLQMDSLKPEDTAVYRCNALVSASVRASDYWGQGTLVTVSS	3.33	3.19	2.86	4.67e-05	16400	no binding (tested: 2000 nM)	0.98
E002 VHH-IgG4 antibody (antibody, V domains shown, VHH fused to IgG4 (VHH-IgG4), expressed in ExpiCHO, protein A purified; not shown: human IgG4 constant part from the pCDNA3.4-IgG4 vector) VH: QVQLVESGGGLVQAGGSLRLSCAASGFTFSDYAVSWYRQAPGKEREFVARITGTGETSRYEDSVKGRFAISRDNVKNTAYLQMNSLKPEDTAVYYCSIYHPPRDYWGQGTQVTVSS	2.73	3.06	2.49	0.000121	48500	no binding (tested: 2000 nM)	0.095
